Broadly, the Kd is the equilibrium constant for the complex coming apart. A higher Kd goes with a looser complex.

Numbering of substitutions follows the chain as printed.

From US20160146830A1 (published 2016) come the findings set out here.

B1: TT-6 (antibody, V domains shown)
VH: QVQLVESGSEVRKPGASVKVSCKASGYTFSRYGLTWVRQAPGQGLEWMGWISGYNSNTNYAPKFQGRVTMTTDTSTNTAYLELRSLRSNDTAVYYCARDYFHSGSQYFFDYWGQGSLVTVSS
VL: DIRLTQSPSSLSASVGDRVTITCRSSQTISTYLNWYQQKPGEAPKILIYAASSLHTGVPSRFSGSGSGTDFTLTITSLQPEDFAIYHCQQSYSTPYTFGQGTKVEIK
notes: also called VH-7/VL-7
B2: TT-5 (antibody, V domains shown)
VH: QVQLQESGPGLVKPSETLSLTCTVSGGSINSYYWSWIRQSPGKGLEWIGYIYYTGINKYNPSLKSRVTISMDTSKRQVSLKVTSLTPADTAVYFCARLHPTCASTRCPENYGMDVWGQGTTVAVSS
VL: B1 VL
notes: also called VH-5/VL-5
B3: TT-3 (antibody, V domains shown)
VH: QVQLVQSGAEVKKPGASVRVSCKASGYTFTRYAMHWVRQAPGQRPEWMGWINVDNGNTEYSQKFQGRLTITRDTSASTAYMELSSLTSDDTAVYYCAKDRVRVVQAATTLDFWGQGTLVTVSS
VL: EIVLTQSPGTLSLSPGERATLSCRASQTIPSKYLGWYQQKLGQAPRLLIYGASSRATGIPDRFSGSGSGTDFTLTISRLEPEDFAVYYCQQYGSLSAITFGQGTRLEIK
notes: also called VH-3/VL-3
B4: TT-8 (antibody, V domains shown)
VH: QVQLVESGGGLVKPGGSLRLSCAASGFSFSHYSMNWIRQAPGKGLEWVASITSGSTNMVYADSLRARFSISRDNAKNSLYLQMDSLSAEDTAVYYCARKGMGHYFDFWGQGTPVTVSS
VL: QTVVTQEPSSSVSLGGTVTLTCGLTSGPVTGAYYPSWHQQTPGQAPRTLIYNTYSLSSGVSDRFSGSILGNKAALTISGAQADDESDYYCVLYMGSGIWMFGGGTKLTVL
notes: also called VH-9/VL-9
B5: TT-7 (antibody, V domains shown)
VH: QVQLQESGPGLVRPSQTLSLTCTVSGDSISDGDSFWSWIRQPPGKGPEWIGYISSSGTTYYYPSLRGRLTVSLDASKNQFSLSLTSVTAADTAVYYCARARNYGFPHFFDFWGRGTLVTVSS
VL: DIQMTQSPSTLSASVGDSVTITCRASQSITRWLAWYQQKPGKAPKLLIYKASLLESGVPSRFSGSGSGTEFTLTISSLQPDDFATYYCQQYNSYSPWTFGPGTKLEIK
notes: also called VH-8/VL-8
B6: TT-1 (antibody, V domains shown)
VH: QVQLVESGGGLVQPGRSLRLSCVGSGFSFESYAMHWVRLAPGKGLEWVAGISWDSGAKGNADSVEGRFTISRDNAKKSVYLEMRSLRPEDTAFYYCAKAPIIGPKYYFYMDVWGKGTSVTVSS
VL: EIVLTQSPGTLSLSPGERATLSCRASQRVKSSYLAWYQQKPGQAPRLLIYDASTRATGIPDRFSGSGSGTDFTLTISRLEPEDVAVYYCQQYGTSRGTFGQGTRLEIK
notes: also called VH-1/VL-1
B7: TT-10 (antibody, V domains shown)
VH: B6 VH with V5Q, L39Q, V79L, Y106H
VL: B6 VL
notes: also called VH-11/VL-11
B8: TT-4 (antibody, V domains shown)
VH: QVTLKESGPALVKPTQTLTLTCTFSGFSLLSSGMCVSWIRQPPGKALEWLARIDWDEKKYYSPSLKTRLTISKDTSKDQVVLTMTNMDPLDTAMYSCARGVVPAGIPFDFWGQGIMVTVSS
VL: ETTLTQSPSTLPASVGDRVTITCRASENINSWLAWYQQKPGKAPKILIYRASNLESGVPSRFSGSGSGTEFTLTISSLQPDDFATYYCQHFDKYFSWTFGHGTKVEIK
notes: also called VH-4/VL-4
B9: TT-11 (antibody, V domains shown)
VH: QVQLVESGAEVKKPGASVRVSCKASGYTFTNYGLAWVRQAPGQGLEWMGWITVYNGHTSYAQKFHDRVTMTTDTSTRTAYLEVRNLGSDDTAVYYCARKPRFYYDTSAWFEFWGQGTLVTVSS
VL: DIVLTQSPETLSVSPGESATLSCRASQSVSTDLAWYQHKPGQAPRLLIWGASTRATGIPARFSGSGSGTEFTLTISSLQSEDFAICFCHQYNNWPTFGQGTKVEIK
notes: also called VH-13/VL-13
B10: TT-2 (antibody, V domains shown)
VH: QVQLVQSGGGVKQPGGSLRLSCTASGFTFEDFNMHWVRQAPGKGLEWISYISGDGDRTHYSDSVRGRFTISRDNSGNSLYLQMTSLRTEDAGFYYCGKSYDYIRENLDSWGQGTLVTVSS
VL: QPGLTQPPSVSVAPGQTARITCGGNNIGSRHVHWYQQRPGQAPVLVVYDDDARPSGISGRFSGSNSGNTATLTISWVEAGDEADYYCQVSDSGREWGVFGSGTKVTVL
notes: also called VH-2/VL-2
B11: TT-9 (antibody, V domains shown)
VH: QVQLQESGPGLVKPSGTLSLTCAVSGVPVYTGHWWTWVRQAPGKGLEWIGEIHHTVTTNYNPSLRSRVTISEDRSKNQISLTLQSVTAADTAVYFCARGEDCVGGSCYSADWGQGILVTVSS
VL: EIVLTQSPSSLSASVGDRVTITCRASQNIHLFLNWYQQRPGRVPKVLIYATSTLQSGVPSRFSGSGSGTDFTLTISSVQPEDFATYYCQQSFSTPRTFGPGTKVEIK
notes: also called VH-10/VL-10

The target of the test is Tetanus toxoid (TT) (UniProt P04958 2-1315). The test can be described thus: competitive ELISA, IgG equilibrated with soluble TT, TT-coated plate. Background: An ELISA detects its analyte on a solid surface through an enzyme-linked reagent.
Sequence of Tetanus toxoid (TT) (P04958 2-457 limits assumed, chain 1 of 2): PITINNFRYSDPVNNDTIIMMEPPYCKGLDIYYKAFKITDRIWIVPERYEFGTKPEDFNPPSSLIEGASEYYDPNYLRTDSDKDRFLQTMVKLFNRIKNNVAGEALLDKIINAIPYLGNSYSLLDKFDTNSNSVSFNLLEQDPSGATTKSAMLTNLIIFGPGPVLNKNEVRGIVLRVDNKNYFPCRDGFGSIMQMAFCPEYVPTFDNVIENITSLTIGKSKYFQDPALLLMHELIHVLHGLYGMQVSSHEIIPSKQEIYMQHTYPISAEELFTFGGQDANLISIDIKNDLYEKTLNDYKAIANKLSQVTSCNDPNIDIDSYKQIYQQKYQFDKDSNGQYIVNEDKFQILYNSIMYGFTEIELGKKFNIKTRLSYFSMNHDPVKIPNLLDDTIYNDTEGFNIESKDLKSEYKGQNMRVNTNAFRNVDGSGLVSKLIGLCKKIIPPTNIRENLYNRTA
Sequence of Tetanus toxoid (TT) (P04958 458-1315 limits assumed, chain 2 of 2): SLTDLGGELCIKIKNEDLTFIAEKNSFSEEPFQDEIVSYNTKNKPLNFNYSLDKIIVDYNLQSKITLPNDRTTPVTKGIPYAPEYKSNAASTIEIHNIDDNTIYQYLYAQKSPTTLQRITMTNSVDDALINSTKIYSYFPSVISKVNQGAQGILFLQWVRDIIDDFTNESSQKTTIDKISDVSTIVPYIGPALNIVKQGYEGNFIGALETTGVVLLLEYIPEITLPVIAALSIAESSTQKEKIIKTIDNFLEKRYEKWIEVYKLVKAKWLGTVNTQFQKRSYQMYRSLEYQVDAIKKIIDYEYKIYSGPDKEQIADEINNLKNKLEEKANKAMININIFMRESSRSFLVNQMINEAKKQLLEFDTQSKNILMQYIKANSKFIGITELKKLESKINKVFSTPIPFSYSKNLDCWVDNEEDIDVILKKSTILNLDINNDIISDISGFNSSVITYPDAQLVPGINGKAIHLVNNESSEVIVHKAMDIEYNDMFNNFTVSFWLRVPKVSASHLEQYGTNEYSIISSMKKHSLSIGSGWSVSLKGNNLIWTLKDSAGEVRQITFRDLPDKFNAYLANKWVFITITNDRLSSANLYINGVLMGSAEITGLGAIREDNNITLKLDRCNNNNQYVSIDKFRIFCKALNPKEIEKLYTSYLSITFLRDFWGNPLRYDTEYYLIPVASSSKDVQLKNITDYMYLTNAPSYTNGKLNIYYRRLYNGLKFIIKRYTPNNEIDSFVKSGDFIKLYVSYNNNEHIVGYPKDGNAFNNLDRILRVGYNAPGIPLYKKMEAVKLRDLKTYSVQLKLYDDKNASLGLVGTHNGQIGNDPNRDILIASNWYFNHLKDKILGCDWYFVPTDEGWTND
B1: the affinity, expressed as Kd, was 0.6 nM.

Molecule B2 displayed a Kd of 18.1 nM. This Kd is about 30-fold higher than that of the molecule before.

The molecule B3 gave a Kd of 3.7 nM.

The molecule B4 came in with a Kd of 2.8 nM.

In turn, B5 returned a Kd of 0.5 nM.

The molecule B6 displayed a Kd of 1.6 nM.

B7 gave a Kd of 0.9 nM.

On to B8, for which the Kd was 3.2 nM.

On to B9, for which the Kd worked out at 1.6 nM.

In turn, B10 came in with a Kd of 22.6 nM.

The molecule B11 came in with a Kd of 0.1 nM.
